T1: LlaGIΔN (UniProt Q93R01 1-1+166-1570, internal_change)
T1 sequence: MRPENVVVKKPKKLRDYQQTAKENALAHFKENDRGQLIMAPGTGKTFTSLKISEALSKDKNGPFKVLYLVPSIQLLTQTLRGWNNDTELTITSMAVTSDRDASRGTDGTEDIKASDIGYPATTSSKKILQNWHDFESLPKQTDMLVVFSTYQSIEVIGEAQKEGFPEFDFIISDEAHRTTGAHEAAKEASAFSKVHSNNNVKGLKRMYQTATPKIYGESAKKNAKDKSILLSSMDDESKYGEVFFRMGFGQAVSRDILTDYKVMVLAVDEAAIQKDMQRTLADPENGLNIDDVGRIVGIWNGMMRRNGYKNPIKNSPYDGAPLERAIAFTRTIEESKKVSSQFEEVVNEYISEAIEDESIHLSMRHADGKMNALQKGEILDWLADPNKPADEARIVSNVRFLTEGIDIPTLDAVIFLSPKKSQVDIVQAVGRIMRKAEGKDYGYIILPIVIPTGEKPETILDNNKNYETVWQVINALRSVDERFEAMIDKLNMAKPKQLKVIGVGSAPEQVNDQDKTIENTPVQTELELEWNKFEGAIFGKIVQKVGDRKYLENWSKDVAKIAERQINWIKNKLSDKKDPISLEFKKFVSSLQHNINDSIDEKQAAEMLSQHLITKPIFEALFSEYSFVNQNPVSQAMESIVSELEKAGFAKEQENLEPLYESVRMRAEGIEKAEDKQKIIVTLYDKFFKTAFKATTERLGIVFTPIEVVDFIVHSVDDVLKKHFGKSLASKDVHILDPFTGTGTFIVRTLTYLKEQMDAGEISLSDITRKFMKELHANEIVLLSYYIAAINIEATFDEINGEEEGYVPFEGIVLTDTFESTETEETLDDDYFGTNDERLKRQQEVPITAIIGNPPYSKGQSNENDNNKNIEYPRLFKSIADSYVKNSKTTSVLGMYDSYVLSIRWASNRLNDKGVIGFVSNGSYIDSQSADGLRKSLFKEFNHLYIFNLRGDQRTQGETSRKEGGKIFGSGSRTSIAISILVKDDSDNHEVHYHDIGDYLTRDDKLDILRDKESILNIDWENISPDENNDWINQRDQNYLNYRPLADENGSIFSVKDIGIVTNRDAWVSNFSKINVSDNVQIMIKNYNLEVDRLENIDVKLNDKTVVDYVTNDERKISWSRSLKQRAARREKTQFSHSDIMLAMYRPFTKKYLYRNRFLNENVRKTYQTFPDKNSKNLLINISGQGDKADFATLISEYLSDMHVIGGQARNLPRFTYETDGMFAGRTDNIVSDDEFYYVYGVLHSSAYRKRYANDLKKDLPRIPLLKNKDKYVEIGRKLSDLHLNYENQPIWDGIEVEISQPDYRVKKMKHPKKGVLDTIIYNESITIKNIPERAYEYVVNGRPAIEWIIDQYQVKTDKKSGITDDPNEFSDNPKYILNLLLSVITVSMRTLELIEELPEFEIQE

B1: LlaGIΔN co-crystal duplex (22 bp) (dsDNA)
DNA 1: TTAGCTAATAGACTGGATGGAGG
DNA 2: TCCTCCATCCAGTCTATTAGCTA
B2: LlaGI co-crystal duplex (28 bp) (dsDNA)
DNA 1: GCTCTAGCTAATAGACTGGATGGAGGTG
DNA 2: CACCTCCATCCAGTCTATTAGCTAGAGC

Columns and labels:
[1] = biological target: T1, LlaGIΔN; experiment: X-ray crystallography, 2.84 A; no AdoMet; target adenine flipped; EMSA: 50 mM Tris-HCl pH 7.4, 100 mM NaCl, 10 mM MgCl2, 0.01 mg/ml BSA, 1 mM DTT, 10% glycerol, 4 C. Crystals at 291 K: LlaGIΔN 100 mM Tris-HCl pH 7.4, 20% PEG 20000, 4% PEG 550 MME, 150-250 mM Na acetate; LlaGI 100 mM MES pH 5.6, 300 mM KCl, 6.5% PEG 20000; settings: protein: recombinant; 5' overhang 1 nt (T) on both strands, 22 bp paired
[2] = biological target: LlaGI full-length (crystal) (UniProt Q93R01 1-1570, D78A); experiment: X-ray crystallography, 7.4 A; EMSA: 50 mM Tris-HCl pH 7.4, 100 mM NaCl, 10 mM MgCl2, 0.01 mg/ml BSA, 1 mM DTT, 10% glycerol, 4 C. Crystals at 291 K: LlaGIΔN 100 mM Tris-HCl pH 7.4, 20% PEG 20000, 4% PEG 550 MME, 150-250 mM Na acetate; LlaGI 100 mM MES pH 5.6, 300 mM KCl, 6.5% PEG 20000; settings: protein: recombinant; blunt

Row | Binder | binding result [1] | binding result [2]
1 | B1 | binds | 
2 | B2 |  | binds

— article PMC4872093, “Structural insights into DNA sequence recognition by Type ISP restriction-modification enzymes”
